Earlier results in PMC2880562.

Target: Arginine repressor ArgR (trimer) (Escherichia coli) (UniProt P0A6D0)
Test: analytical ultracentrifugation

Kd: < 2.5 nM
Substance: Arginine repressor ArgR (trimer) (from UniProt P0A6D0)
